Reference: article doi:10.1101/2022.03.13.484121, “Helical ultrastructure of the oncogenic metalloprotease meprin α in complex with a small molecule hydroxamate inhibitor” (bioRxiv, 2022)

B1: pro-meprin α R372T (enzyme, human (from the printed accession), UniProt Q16819 22-600, looked up)
chain: VPIKYLPEENVHDADFGEQKDISEINLAAGLDLFQGDILLQKSRNGLRDPNTRWTFPIPYILADNLGLNAKGAILYAFEMFRLKSCVDFKPYEGESSYIIFQQFDGCWSEVGDQHVGQNISIGQGCAYKAIIEHEILHALGFYHEQSRTDRDDYVNIWWDQILSGYQHNFDTYDDSLITDLNTPYDYESLMHYQPFSFNKNASVPTITAKIPEFNSIIGQRLDFSAIDLERLNRMYNCTTTHTLLDHCTFEKANICGMIQGTRDDTDWAHQDSAQAGEVDHTLLGQCTGAGYFMQFSTSSGSAEEAALLESRILYPKRKQQCLQFFYKMTGSPSDRLVVWVRRDDSTGNVTKLVKVQTFQGDDDHNWKIAHVVLKEEQKFRYLFQGTKGDPQNSTGGIYLDDITLTETPCPTGVWTVRNFSQVLENTSKGDKLQSPRFYNSEGYGFGVTLYPNSRESSGYLRLAFHVCSGENDAILEWPVENRQVIITILDQEPDVRNRMSSSMVFTTSKSHTSPAINDTVIWDRPSRVGTYHTDCNCFRSIDLGWSGFISHQMLKRRSFLKNDDLIIFVDFEDITHLS
notes: meprin α pro-form V22-S600 of uniprot Q16819 with R372T (removes a salt bridge of the helix interface); SEC-MALS was done on the zymogen (legend S6c); also called Pro-Meprin α variant R372T; source: S2 cells, secreted, purified (HIC-EBA, Strep-Tactin)
B2: pro-meprin α R372A (enzyme, human (from the printed accession), UniProt Q16819 22-600, looked up)
chain: VPIKYLPEENVHDADFGEQKDISEINLAAGLDLFQGDILLQKSRNGLRDPNTRWTFPIPYILADNLGLNAKGAILYAFEMFRLKSCVDFKPYEGESSYIIFQQFDGCWSEVGDQHVGQNISIGQGCAYKAIIEHEILHALGFYHEQSRTDRDDYVNIWWDQILSGYQHNFDTYDDSLITDLNTPYDYESLMHYQPFSFNKNASVPTITAKIPEFNSIIGQRLDFSAIDLERLNRMYNCTTTHTLLDHCTFEKANICGMIQGTRDDTDWAHQDSAQAGEVDHTLLGQCTGAGYFMQFSTSSGSAEEAALLESRILYPKRKQQCLQFFYKMTGSPSDRLVVWVRRDDSTGNVAKLVKVQTFQGDDDHNWKIAHVVLKEEQKFRYLFQGTKGDPQNSTGGIYLDDITLTETPCPTGVWTVRNFSQVLENTSKGDKLQSPRFYNSEGYGFGVTLYPNSRESSGYLRLAFHVCSGENDAILEWPVENRQVIITILDQEPDVRNRMSSSMVFTTSKSHTSPAINDTVIWDRPSRVGTYHTDCNCFRSIDLGWSGFISHQMLKRRSFLKNDDLIIFVDFEDITHLS
notes: meprin α pro-form V22-S600 of uniprot Q16819 with R372A (removes a salt bridge of the helix interface); source: S2 cells, secreted, purified (HIC-EBA, Strep-Tactin)
B3: pro-meprin α (V22-S600), wild type (enzyme, human (from the printed accession), UniProt Q16819 22-600, looked up)
chain: VPIKYLPEENVHDADFGEQKDISEINLAAGLDLFQGDILLQKSRNGLRDPNTRWTFPIPYILADNLGLNAKGAILYAFEMFRLKSCVDFKPYEGESSYIIFQQFDGCWSEVGDQHVGQNISIGQGCAYKAIIEHEILHALGFYHEQSRTDRDDYVNIWWDQILSGYQHNFDTYDDSLITDLNTPYDYESLMHYQPFSFNKNASVPTITAKIPEFNSIIGQRLDFSAIDLERLNRMYNCTTTHTLLDHCTFEKANICGMIQGTRDDTDWAHQDSAQAGEVDHTLLGQCTGAGYFMQFSTSSGSAEEAALLESRILYPKRKQQCLQFFYKMTGSPSDRLVVWVRRDDSTGNVRKLVKVQTFQGDDDHNWKIAHVVLKEEQKFRYLFQGTKGDPQNSTGGIYLDDITLTETPCPTGVWTVRNFSQVLENTSKGDKLQSPRFYNSEGYGFGVTLYPNSRESSGYLRLAFHVCSGENDAILEWPVENRQVIITILDQEPDVRNRMSSSMVFTTSKSHTSPAINDTVIWDRPSRVGTYHTDCNCFRSIDLGWSGFISHQMLKRRSFLKNDDLIIFVDFEDITHLS
modifications: N-linked glycosylations (sites not given in the text)
notes: meprin α, pro-form without signal peptide, EGF-like domain and transmembrane region; V22-S600 of uniprot Q16819; Cloned into pMT/BiP/V5; Subunits form a disulphide-linked (C308) homodimer; the dimers form helical filaments; also called zymogen; wild type meprin α; source: Schneider-2 Drosophila cells (S2), secreted, purified (HIC-EBA, Strep-Tactin)
B4: meprin α, active (mature) form, wild type (enzyme, human (from the printed accession), UniProt Q16819 22-600, looked up)
chain: NGLRDPNTRWTFPIPYILADNLGLNAKGAILYAFEMFRLKSCVDFKPYEGESSYIIFQQFDGCWSEVGDQHVGQNISIGQGCAYKAIIEHEILHALGFYHEQSRTDRDDYVNIWWDQILSGYQHNFDTYDDSLITDLNTPYDYESLMHYQPFSFNKNASVPTITAKIPEFNSIIGQRLDFSAIDLERLNRMYNCTTTHTLLDHCTFEKANICGMIQGTRDDTDWAHQDSAQAGEVDHTLLGQCTGAGYFMQFSTSSGSAEEAALLESRILYPKRKQQCLQFFYKMTGSPSDRLVVWVRRDDSTGNVRKLVKVQTFQGDDDHNWKIAHVVLKEEQKFRYLFQGTKGDPQNSTGGIYLDDITLTETPCPTGVWTVRNFSQVLENTSKGDKLQSPRFYNSEGYGFGVTLYPNSRESSGYLRLAFHVCSGENDAILEWPVENRQVIITILDQEPDVRNRMSSSMVFTTSKSHTSPAINDTVIWDRPSRVGTYHTDCNCFRSIDLGWSGFISHQMLKRRSFLKNDDLIIFVDFEDITHLS
modifications: N-linked glycosylations (sites not given in the text)
notes: meprin α construct V22-S600 of uniprot Q16819 after removal of the pro-peptide by trypsin; also called active state

Experiments:
[1] = target: the molecule itself; assay: MALDI-TOF mass spectrometry; C4 ZipTip purified samples, DHAP matrix, linear positive mode; zymogen and mature forms; shows only the covalent (disulphide) dimer
[2] = target: the molecule itself; assay: electron microscopy (cryo-TEM, 120 kV); inspection of particles of the purified variants

Protein	stoichiometry N [1]	stoichiometry N [2]
B1	2	–
B2	–	2
B3	2	–
B4	2	–
